Target: T1, human epidermal growth factor receptor (human (endogenous in melanoma cells …, UniProt P00533 25-1210))
T1 construct: epidermal growth factor receptor, human, as present on human melanoma cells (CRL-1872); The cells were not transfected; also called hEGFR; EGFR; source: endogenous, human melanoma cells (CRL-1872, ATCC), formalin-fixed in a 96-well plate
Assay: ligand binding assay on fixed cells (biotinylated ligand, NeutrAvidin-HRP, ABTS, absorbance at 405 nm); formalin-fixed human melanoma cells in a 96-well plate; biotinylated peptide at 10, 50 and 500 nM in MEM with 0.1% BSA and 200 mM HEPES, 37 °C, 1 h; washes with cold PBS and 0.3 M NaCl; triplicates
Conditions: one partner purified

increase of the relative binding percentage on a tenfold higher concentration: 4%
B1: Recombinant human EGF (ligand)
chain: MNSDSECPLSHDGYCLHDGVCMYIEALDKYACNCVVGYIGERCQYRDLKWWELR
modifications: biotin (conjugated with NHS-biotin; sites not stated)
notes: also called rhEGF; source: bought: Thermo Scientific; biotinylated with NHS-biotin
